Consider eight molecules from patent publication US10941182 (Amgen, dated 2021).

Starred links: 1 amine or outer side, 2 acyl side, 3 side chain; linkers in the order of their positions; H or OH if unused. Non-standard residues stand in square brackets, D forms with d. *: point of attachment. dBip = N[C@H](Cc1ccc(-c2ccccc2)cc1)C(=O)O; Oic = O=C(O)[C@@H]1C[C@@H]2CCCC[C@@H]2N1; Phe(4-I) = N[C@@H](Cc1ccc(I)cc1)C(=O)O; γGlu = O=C(O)[C@H](CCC(=O)[*:2])N[*:1]; Tridecanoyl = CCCCCCCCCCCCC(=O)*; hArg = N=C(N)NCCCC[C@H](N)C(=O)O; NMeL = CN[C@@H](CC(C)C)C(=O)O; Nle = CCCC[C@H](N)C(=O)O; AEEA = NCCOCCOCC(=O)O

One experiment has as its target T1, human APJ receptor (human, UniProt P35414 1-380).
T1 sequence (looked up): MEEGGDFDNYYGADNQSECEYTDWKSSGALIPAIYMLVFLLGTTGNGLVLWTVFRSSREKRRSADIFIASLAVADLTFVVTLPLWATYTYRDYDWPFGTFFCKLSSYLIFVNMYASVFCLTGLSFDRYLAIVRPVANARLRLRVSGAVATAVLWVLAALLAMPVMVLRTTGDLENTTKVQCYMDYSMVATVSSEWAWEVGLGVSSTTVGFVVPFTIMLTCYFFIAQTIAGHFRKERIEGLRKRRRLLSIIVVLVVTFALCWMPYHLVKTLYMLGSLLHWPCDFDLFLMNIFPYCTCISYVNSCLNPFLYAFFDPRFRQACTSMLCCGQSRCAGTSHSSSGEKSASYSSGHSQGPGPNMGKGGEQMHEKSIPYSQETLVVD
The experiment in a line: cell-based or functional assay.

The next experiment has as its target T2, rat APJ receptor (rat, UniProt Q9JHG3 1-377).
T2 sequence (looked up): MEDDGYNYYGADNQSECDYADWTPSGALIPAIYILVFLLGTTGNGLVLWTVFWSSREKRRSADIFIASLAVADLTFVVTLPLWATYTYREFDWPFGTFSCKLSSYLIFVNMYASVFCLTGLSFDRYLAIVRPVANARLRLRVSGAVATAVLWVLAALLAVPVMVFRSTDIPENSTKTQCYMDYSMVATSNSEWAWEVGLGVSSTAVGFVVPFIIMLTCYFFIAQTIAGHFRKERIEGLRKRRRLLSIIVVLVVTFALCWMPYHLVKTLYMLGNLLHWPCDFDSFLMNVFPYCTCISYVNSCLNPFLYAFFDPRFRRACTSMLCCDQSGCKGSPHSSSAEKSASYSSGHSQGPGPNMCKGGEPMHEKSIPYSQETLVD
The experiment in a line: cell-based or functional assay.

B1: SEQ ID NO: 331 (peptide)
peptide: Tridecanoyl-[γGlu][AEEA][AEEA][hArg][dR]Q[hArg]PK[NMeL]AA[Nle]G[Oic][Phe(4-I)]P[dBip]-OH
SMILES: CCCCCCCCCCCCC(=O)N[C@@H](CCC(=O)NCCOCCOCC(=O)NCCOCCOCC(=O)N[C@@H](CCCCNC(=N)N)C(=O)N[C@H](CCCNC(=N)N)C(=O)N[C@@H](CCC(N)=O)C(=O)N[C@@H](CCCCNC(=N)N)C(=O)N1CCC[C@H]1C(=O)N[C@@H](CCCCN)C(=O)N(C)[C@@H](CC(C)C)C(=O)N[C@@H](C)C(=O)N[C@@H](C)C(=O)N[C@@H](CCCC)C(=O)NCC(=O)N1[C@H](C(=O)N[C@@H](Cc2ccc(I)cc2)C(=O)N2CCC[C@H]2C(=O)N[C@H](Cc2ccc(-c3ccccc3)cc2)C(=O)O)C[C@@H]2CCCC[C@@H]21)C(=O)O
For B1, the “EC50 Human APJ Receptor” value with human APJ receptor stood at 24.7 nM. In the experiment with rat APJ receptor, the “EC50 Rat APJ Receptor” value was found to be 18.1 nM.

B2: SEQ ID NO: 325 (peptide)
peptide: Tridecanoyl-[γGlu][AEEA][AEEA][hArg][dR]Q[hArg]PK[NMeL]SA[Nle]G[Oic][Phe(4-I)]P[dBip]-OH
SMILES: CCCCCCCCCCCCC(=O)N[C@@H](CCC(=O)NCCOCCOCC(=O)NCCOCCOCC(=O)N[C@@H](CCCCNC(=N)N)C(=O)N[C@H](CCCNC(=N)N)C(=O)N[C@@H](CCC(N)=O)C(=O)N[C@@H](CCCCNC(=N)N)C(=O)N1CCC[C@H]1C(=O)N[C@@H](CCCCN)C(=O)N(C)[C@@H](CC(C)C)C(=O)N[C@@H](CO)C(=O)N[C@@H](C)C(=O)N[C@@H](CCCC)C(=O)NCC(=O)N1[C@H](C(=O)N[C@@H](Cc2ccc(I)cc2)C(=O)N2CCC[C@H]2C(=O)N[C@H](Cc2ccc(-c3ccccc3)cc2)C(=O)O)C[C@@H]2CCCC[C@@H]21)C(=O)O
For the molecule B2, the “EC50 Human APJ Receptor” value in the experiment with human APJ receptor was found to be 3.96 nM. In the experiment with rat APJ receptor, the “EC50 Rat APJ Receptor” value stood at 4.76 nM.

B3: SEQ ID NO: 318 (peptide)
peptide: Tridecanoyl-[γGlu][AEEA][AEEA][hArg][dR]Q[hArg]P[dR][NMeL]AH[Nle]G[Oic][Phe(4-I)]P[dBip]-OH
SMILES: CCCCCCCCCCCCC(=O)N[C@@H](CCC(=O)NCCOCCOCC(=O)NCCOCCOCC(=O)N[C@@H](CCCCNC(=N)N)C(=O)N[C@H](CCCNC(=N)N)C(=O)N[C@@H](CCC(N)=O)C(=O)N[C@@H](CCCCNC(=N)N)C(=O)N1CCC[C@H]1C(=O)N[C@H](CCCNC(=N)N)C(=O)N(C)[C@@H](CC(C)C)C(=O)N[C@@H](C)C(=O)N[C@@H](Cc1c[nH]cn1)C(=O)N[C@@H](CCCC)C(=O)NCC(=O)N1[C@H](C(=O)N[C@@H](Cc2ccc(I)cc2)C(=O)N2CCC[C@H]2C(=O)N[C@H](Cc2ccc(-c3ccccc3)cc2)C(=O)O)C[C@@H]2CCCC[C@@H]21)C(=O)O
Turning to B3, in the experiment with human APJ receptor, the “EC50 Human APJ Receptor” value turned out to be 7.44 nM. For the same molecule, in the experiment with rat APJ receptor, the “EC50 Rat APJ Receptor” value was 45.9 nM.

B4: SEQ ID NO: 324 (peptide)
peptide: Tridecanoyl-[γGlu][AEEA][AEEA][hArg][dR]Q[hArg]P[dR][NMeL]SA[Nle]G[Oic][Phe(4-I)]P[dBip]-OH
SMILES: CCCCCCCCCCCCC(=O)N[C@@H](CCC(=O)NCCOCCOCC(=O)NCCOCCOCC(=O)N[C@@H](CCCCNC(=N)N)C(=O)N[C@H](CCCNC(=N)N)C(=O)N[C@@H](CCC(N)=O)C(=O)N[C@@H](CCCCNC(=N)N)C(=O)N1CCC[C@H]1C(=O)N[C@H](CCCNC(=N)N)C(=O)N(C)[C@@H](CC(C)C)C(=O)N[C@@H](CO)C(=O)N[C@@H](C)C(=O)N[C@@H](CCCC)C(=O)NCC(=O)N1[C@H](C(=O)N[C@@H](Cc2ccc(I)cc2)C(=O)N2CCC[C@H]2C(=O)N[C@H](Cc2ccc(-c3ccccc3)cc2)C(=O)O)C[C@@H]2CCCC[C@@H]21)C(=O)O
Turning to B4, the “EC50 Human APJ Receptor” value with human APJ receptor was found to be 14.9 nM. Further, the “EC50 Rat APJ Receptor” value with rat APJ receptor was 20.4 nM.

B5: SEQ ID NO: 319 (peptide)
peptide: Tridecanoyl-[γGlu][AEEA][AEEA][hArg][dR]Q[hArg]PK[NMeL]AH[Nle]G[Oic][Phe(4-I)]P[dBip]-OH
SMILES: CCCCCCCCCCCCC(=O)N[C@@H](CCC(=O)NCCOCCOCC(=O)NCCOCCOCC(=O)N[C@@H](CCCCNC(=N)N)C(=O)N[C@H](CCCNC(=N)N)C(=O)N[C@@H](CCC(N)=O)C(=O)N[C@@H](CCCCNC(=N)N)C(=O)N1CCC[C@H]1C(=O)N[C@@H](CCCCN)C(=O)N(C)[C@@H](CC(C)C)C(=O)N[C@@H](C)C(=O)N[C@@H](Cc1c[nH]cn1)C(=O)N[C@@H](CCCC)C(=O)NCC(=O)N1[C@H](C(=O)N[C@@H](Cc2ccc(I)cc2)C(=O)N2CCC[C@H]2C(=O)N[C@H](Cc2ccc(-c3ccccc3)cc2)C(=O)O)C[C@@H]2CCCC[C@@H]21)C(=O)O
Turning to B5, the “EC50 Human APJ Receptor” value in the experiment with human APJ receptor came to 73.2 nM. Also, the “EC50 Rat APJ Receptor” value in the experiment with rat APJ receptor is 63.1 nM.

B6: SEQ ID NO: 323 (peptide)
peptide: Tridecanoyl-[γGlu][AEEA][AEEA][hArg][dR]Q[hArg]P[Nle][NMeL]SAKG[Oic][Phe(4-I)]P[dBip]-OH
SMILES: CCCCCCCCCCCCC(=O)N[C@@H](CCC(=O)NCCOCCOCC(=O)NCCOCCOCC(=O)N[C@@H](CCCCNC(=N)N)C(=O)N[C@H](CCCNC(=N)N)C(=O)N[C@@H](CCC(N)=O)C(=O)N[C@@H](CCCCNC(=N)N)C(=O)N1CCC[C@H]1C(=O)N[C@@H](CCCC)C(=O)N(C)[C@@H](CC(C)C)C(=O)N[C@@H](CO)C(=O)N[C@@H](C)C(=O)N[C@@H](CCCCN)C(=O)NCC(=O)N1[C@H](C(=O)N[C@@H](Cc2ccc(I)cc2)C(=O)N2CCC[C@H]2C(=O)N[C@H](Cc2ccc(-c3ccccc3)cc2)C(=O)O)C[C@@H]2CCCC[C@@H]21)C(=O)O
With B6, the “EC50 Human APJ Receptor” value with human APJ receptor is 2.51 nM. In addition, in the experiment with rat APJ receptor, the “EC50 Rat APJ Receptor” value came to 5.29 nM.

B7: SEQ ID NO: 313 (peptide)
peptide: Tridecanoyl-[γGlu][AEEA][AEEA][hArg][dR]Q[hArg]PK[NMeL]SH[Nle]G[Oic][Phe(4-I)]P[dBip]-OH
SMILES: CCCCCCCCCCCCC(=O)N[C@@H](CCC(=O)NCCOCCOCC(=O)NCCOCCOCC(=O)N[C@@H](CCCCNC(=N)N)C(=O)N[C@H](CCCNC(=N)N)C(=O)N[C@@H](CCC(N)=O)C(=O)N[C@@H](CCCCNC(=N)N)C(=O)N1CCC[C@H]1C(=O)N[C@@H](CCCCN)C(=O)N(C)[C@@H](CC(C)C)C(=O)N[C@@H](CO)C(=O)N[C@@H](Cc1c[nH]cn1)C(=O)N[C@@H](CCCC)C(=O)NCC(=O)N1[C@H](C(=O)N[C@@H](Cc2ccc(I)cc2)C(=O)N2CCC[C@H]2C(=O)N[C@H](Cc2ccc(-c3ccccc3)cc2)C(=O)O)C[C@@H]2CCCC[C@@H]21)C(=O)O
For the molecule B7, the “EC50 Human APJ Receptor” value with human APJ receptor is 14.8 nM. Further, the “EC50 Rat APJ Receptor” value in the experiment with rat APJ receptor was determined as 10.4 nM.

B8: SEQ ID NO: 330 (peptide)
peptide: Tridecanoyl-[γGlu][AEEA][AEEA][hArg][dR]Q[hArg]P[dR][NMeL]AA[Nle]G[Oic][Phe(4-I)]P[dBip]-OH
SMILES: CCCCCCCCCCCCC(=O)N[C@@H](CCC(=O)NCCOCCOCC(=O)NCCOCCOCC(=O)N[C@@H](CCCCNC(=N)N)C(=O)N[C@H](CCCNC(=N)N)C(=O)N[C@@H](CCC(N)=O)C(=O)N[C@@H](CCCCNC(=N)N)C(=O)N1CCC[C@H]1C(=O)N[C@H](CCCNC(=N)N)C(=O)N(C)[C@@H](CC(C)C)C(=O)N[C@@H](C)C(=O)N[C@@H](C)C(=O)N[C@@H](CCCC)C(=O)NCC(=O)N1[C@H](C(=O)N[C@@H](Cc2ccc(I)cc2)C(=O)N2CCC[C@H]2C(=O)N[C@H](Cc2ccc(-c3ccccc3)cc2)C(=O)O)C[C@@H]2CCCC[C@@H]21)C(=O)O
B8: in the experiment with human APJ receptor, the “EC50 Human APJ Receptor” value stood at 39.7 nM. Besides, the “EC50 Rat APJ Receptor” value with rat APJ receptor was found to be 56.1 nM.
